{
  "source": "patent US8642284B1",
  "about": "“Methods for identifying agents that alter NAD-dependent deacetylation activity of a SIR2 protein” (Massachusetts Institute of Technology, priority 1999, dated 2014)",
  "system": "NC(=O)c1ccc[n+]([C@@H]2O[C@H](COP(=O)([O-])OP(=O)(O)OC[C@H]3O[C@@H](n4cnc5c(N)ncnc54)[C@H](O)[C@@H]3O)[C@@H](O)[C@H]2O)c1",
  "test": "NAD-dependent deacetylation of di-acetylated H3 peptide by recombinant yeast Sir2p (HPLC)",
  "type": "biochemical",
  "conditions": "other: reaction about 50% of maximal level; pH 9.0",
  "experimental": "The typical reaction of Sir2 deacetylase activity was performed in 50 μl of buffer containing 50 mM Tris-HCl [pH 9.0], 4 mM MgCl2, 0.2 mM DTT, variable concentration of cold nicotinamide adenine dinucleotide (NAD) or NAD derivatives (SIGMA®, MO), 5-10 μg of the purified recombinant Sir2 proteins, and 10 μg of the histone H3 N-terminal tail peptide (amino acid 1-20) di-acetylated at positions 9 and 14 (Upstate Biotechnology™, NY). […] To detect the ADP-ribosylation activity, 8 μCi of NAD 5′-[α-^32P]triphosphate (˜1000 Ci/mmol, Amersham Pharmacia Biotech™, NJ) was added to the same reaction containing 1 μM cold NAD. Histone H3 protein (4 μg) (Roche Molecular Biochemicals™, IN) were used for this assay. All reaction mixtures were incubated at room temperature for 1 hr. Trichostatin A and coumermycin A1 (SIGMA™) were prepared in dimethylsulfoxide (DMSO, SIGMA®), and 5 μl of solvent or inhibitor was added to the reactions prior to adding Sir2 proteins.\nAfter the incubation, the products were precipitated at −20° C. overnight by adding 50 μl of distilled water and 25 μl of 100% trichloroacetic acid (TCA) solution. […] The chromatograms at the absorbance of 210 nm were digitally recorded and analyzed by Hewlett Packard ChemStation™ system (version A.06.03 [509]). […] PTH amino acid chromatograms were recorded and analyzed by the ABI Model 610A2.1 data integration/analysis system. […]",
  "data": [
    {"substance": "Sir2p (Saccharomyces cerevisiae S288C)", "values": [
      {"measurement": "Km", "result": 100, "unit": "µM"}
    ]}
  ]
}
